Measured values reported in the DeepSol protein solubility set.

Experiment: soluble on expression in E. coli; label from the status in PepcDB or PDB records

Row | Sequence | soluble on expression in E. coli
1 | MNPPDISVLIVSFNTRDLLRRCLASLRDQAGGTGIETIVVDNASRDGSADMVEAEFPDVRLIRSPVNLGFGNANNLAFTQSRGRYLVLLNSDACLAPGLLDAASKRMDACPDVGMAGGRLVGPEGGWQPSARMFPSLLNEFLVLSGLAHRYPKSRLFGRFDRTWADPSEEAGVDWVPGAFAILRRDLIDRIGFFDPRFFLYYEEVDLCRRIRAAGCKIMYWPELVITHLGGESAKTLSDMEFSSHASQLTLWRMRSQALYYRKWHGLALAWSAKTLEQLWHWLRALRHRRSAPAKAHDSEALIRLWNRAWKETEGGRVSPPQPWLEHHHHHH | not soluble
2 | MSLDVINQLPSPEALLEELHRVVSKPIRLMVVCGTHNRAILRYGIREELPDFIELVAGPGCSVCVMPTGHVDAFVKVARQPDVITATCEDLLKVRGSKESLADVLNEGVHRVEIISSPRQALELAYVEEDKIVVYPAVGFEATAPSIAETILEAAQNGVGNFCVIPSIRLLPPTIDALLLDPQLSIQGLLCSDHINTISDTEAYADLARKHSLSCCIAGFEKAEILQGILSMVKQIHRGESMVDASGAMVYSMEETARARRVVEEVFFPTETAWRGLGSIAESGFVIRDELALYDATKRFNVRFAEGTDQCMCHCNEIISGRALPPDCPAFGMACTLQNPVGPCMISNEGICAAYFKYKLESSRFSRLDVEGHHHHHH | soluble
3 | LHAEGPPSVICIRLLVGLVFLSEGIQKFMYPDQLGPGRFERIGIPAATFFADLDGVVEIVCGTLVLLGLLTRVAAVPLLIDMVGAIVLTKLRALQPGGFLGVEGFWGMAHAARTDLSMLLGLIFLLWSGPGRWSLDRRLSKRATACGAR | not soluble
4 | MSLTRRDFAGRSALTGAGVVLAGSVGALATAPNALASTDTDSVGAEHDGHDHHHGHGHGGVGYGPLLPDPDGILALPAGFRYEIITYSGRTKLESGEYTPSNHDGTAAFDGPRGTTLLVNNHELGGHRDDWPHPVPLTEGLVYDPAAAGGCTVVEVRRGGHVAEWVGIAGTATNCAGGSTPWGTWLTCEETEDRAGEEGMTKDHGYVFEVDPEDRRANREPKPVKALGRYAHEAVVIDPKRGHAYLTEDASGPNGLLYRWTPPEHFRHGRGRLRTLADDAGVLQAFKCFDSGGKFVDDLSRATRTGTVYGVDWVDVPDRDAQTTSVRKQFAAGEVTRARKLEGMWWADGGAYVVSSFARDESPGRPHDGQVWFYDPKRRTLTLKVLLGVNADPSADGAFDGPDNITVSPYGGLVIAEDGDGVQHLFGATDSGRTYPIARNELNLGTEDDPEYSEFTGVTFSPDGRTLYANIQTPGIMLAITGPWKRQKRR | soluble
5 | MISVVGAGGKTSLLFWLAELLQASGRRVLITTTTHMFMPTSHWPVVFCRDPAMLPHASLTSPISFCFHSWKANQGKVQGFTPEAIDALVQRPECDVILIEADGSRGMPLKAPDEHEPCIPKSSCCVIAVMGGHTLGAKVSTENVHRWSQFADITGLTPDATLQLSDLVALVRHPQGAFKNVPQGCRRVWFINRFSQCENAIAQSELLQPLQQHDVEAIWLGDIQEHPAIARRFVNLEHHHHHH | not soluble
6 | MSLHINQLLQHANSDLPLLQANFGLERESLRINKTNHRLAQTPHPTALGSRQFHPYIQTDYSESQMELITPVAHSSKEVLRFLGAITDVAERSIDQNQYLWPLSMPPQITEDEIEIAQLEDDFEFSYRQYLDKKYGKILQSISGIHYNMELGADLMNELFELSGYQSFIDFKNDLYLKVAQNFLNYRWFLTYLYGASPLAEKGFLNEELSQTVRSIRNSHLGYVNTDDIKVPFDSLENYISSIEHYVKSGALSAEKEFYSAVRLRGSKHNRDYLTKGITYLEFRCFDLNPFNNRGITQETIDSVHLFILAMLWLDTPKKLNQALDKAQKLNDKIALSHPLEKLPKENSASLIIEAMEALIKHFKLPSYYDDLLIAIKKQVENPKLTLSGRLFEHIKHASLEHFGQKKGQDYHNYAWQNYYALKGYENMELSTQMLLFDTIQKGIHFEILDENDQFLKLWHNDHIEYVKNGNMTSKDNYVIPLAMANKVVTKKILRENGYPVPAGAEFDNKDEALRYYSQIKNKPIVVKPKTTNFGLGISIFETAASHNDYEKALDIAFIEDYSVLVEEFIPGTEYRFFILDGKCEAVLLRVAANVVGDGHSTVRQLVAQKNRDPLRGREHRSPLEIIDLGDIELLMLQQEGYTLEDILPKGKKVNLRGNSNISTGGDSIDVTETMDPSYKQLAANMATAMGAWVCGVDLIIPDTNLKASKGKPNCTCIELNFNPSMYMHTYCYQGPGQVITGKILAKLFPEISTKIEGHHHHHH | soluble
7 | MSLINKEILPFTAQAFDPKKDQFKEVTQEDLKGSWSVVCFYPADFSFVCPTELEDLQNQYEELQKLGVNVFSVSTDTHFVHKAWHDHSDAISKITYTMIGDPSQTITRNFDVLDEATGLAQRGTFIIDPDGVVQASEINADGIGRDASTLAHKIKAAQYVRKNPGEVCPAKWEEGAKTLQPGLDLVGKI | not soluble
8 | MTNSVLRVLEHLRAHDHDAIVLAPGDADTPHEYAGFPVIPLASLHWPGYQDVRVSTSPQWTMERYLSEFEPDVVHLAGPFMIGYKGAMAAASLGIPIVAIYQTDIPSYAGRYGLGKLEFYGWYRVRQIHSLAVATYAPSTFSRDQLVSHGVPRVDIWGRGVDKVRFHPSKRSQQLHDEWAPNGEVVIGYMGRLAAEKRVADMTNLADIPNTKLVIVGDGPARAEVEKQLPHAVFTGGLGGEDLPRALASMDVFCSTGELETFCQAVQEAKACGLPVISPRKGGPIDLIDSSRTGWLYEPGDMTDFRSRVIDLVGDDYKRHAMGIAARASIENRTWENLCAELVEHYKEAIRLAGRSTRIRAVLLEHHHHHH | not soluble
9 | ALYNVDAGHRAVIFDRFRGVQDIVVGEGTHFLIPWVQKPIIFDCRSRPRNVPVITGSKDLQNVNITLRILFRPVASQLPRIFTSIGEDYDERVLPSITTEILKSVVARFDAGELITQRELVSRQVSDDLTERAATFGLILDDVSLTHLTFGKEFTEAVEAKQVAQQEAERARFVVEKAEQQKKAAIISAEGDSKAAELIANSLATAGDGLIELRKLEAAEDIAYQLSRSRNITYLPAGQSVLLQLPQ | not soluble
10 | MGSDKIHHHHHHMTHEEHHAAKTLGIGKAIAVLTSGGDAQGMNAAVRAVVRVGIFTGARVFFVHEGYQGLVDGGDHIKEATWESVSMMLQLGGTVIGSARCKDFREREGRLRAAYNLVKRGITNLCVIGGDGSLTGADTFRSEWSDLLSDLQKAGKITDEEATKSSYLNIVGLVGSIDNDFCGTDMTIGTDSALHRIMEIVDAITTTAQSHQRTFVLEVMGRHCGYLALVTSLSCGADWVFIPECPPDDDWEEHLCRRLSETRTRGSRLNIIIVAEGAIDKNGKPITSEDIKNLVVKRLGYDTRVTVLGHVQRGGTPSAFDRILGSRMGVEAVMALLEGTPDTPACVVSLSGNQAVRLPLMECVQVTKDVTKAMDEKKFDEALKLRGRSFMNNWEVYKLLAHVRPPVSKSGSHTVAVMNVGAPAAGMNAAVRSTVRIGLIQGNRVLVVHDGFEGLAKGQIEEAGWSYVGGWTGQGGSKLGTKRTLPKKSFEQISANITKFNIQGLVIIGGFEAYTGGLELMEGRKQFDELCIPFVVIPATVSNNVPGSDFSVGADTALNTICTTCDRIKQSAAGTKRRVFIIETMGGYCGYLATMAGLAAGADAAYIFEEPFTIRDLQANVEHLVQKMKTTVKRGLVLRNEKCNENYTTDFIFNLYSEEGKGIFDSRKNVLGHMQQGGSPTPFDRNFATKMGAKAMNWMSGKIKESYRNGRIFANTPDSGCVLGMRKRALVFQPVAELKDQTDFEHRIPKEQWWLKLRPILKILAKYEIDLDTSDHAHLEHITRKRSGEAAV | not soluble
11 | MGSDKIHHHHHHMIPISLIQETAEGLMDKAAIEIPQDYLDGLQEAARTEDGDLSSFVLKAMLDNYEAAKEDRRAMCGDTGVPRWFVKMGNDASVEGGMVALEAALRRATANATNGVPLRPNRVHPLWRTDHNNNVGIGAPEIEYGFEPEGEWIDLITVHKGGLFGTDYRMLFPSDGLQGIKRFYLDSLMAFGKRGLACQPAIIGIGLGGSKDICMTLGKRASTLRVVGSRNSDPRIAEMEDEFKALGNSIGMGAMGFVGKNMVIDCNIEVGYCHTGGLPMSVHAFCLSSRRAVARIHADGRVEHRTDPDWFTDYQRRETIDWPLAQEAAE | not soluble
12 | VFDWDGTLVDSIARIVDSMKAAARETALPERGDTRIKGIIGLGLPEAIASLYPEVGDPALVERFRCAYSEHYLAQEAQPSRLFPGVAEAMVHFREAGFRLAVATGKSRRGLDRVLAGHGWSDFFDITRCADETASKPDPLMLHEILAHCRVEPGRALMIGDSPFDLEMARRAGMDSVAVAYGAQSLEQLRPYAPRLEVEHFTELRAWLGGARREAVS | not soluble
13 | MGKRLKSNARKSAVNKLVKKTDNRIKEEQRVIRTPKVDEQELKLVRAPKISSAMFMKYNTQLGPPFHVIVDTNFVNFAVKNRIDMFQGFMDCLFAKTIVYATDCVLAELEKVRRFKIALKVLKDPRVQRLKCEHKGTYADDCLVQRVTQHKCYIVATCDRDLKRRIRKIPGVPIMYIVNHRFSIERMPDAYGAPMN | not soluble
14 | MRRNISIPASDSESALPGSPQGSDAHVSWWCGCGVIVGMSVSLLRGRTVRRALSVLVVAGLLGAGVTGCSNDAGAKTENTIDASPTPTNTTTDGDGDSTEEPVENTPAEPEQRPTPVEPEAMKTGDKAGAIAAAQFFVEVFDYDARTSSTTLMDKYAYKKCTLCNEMRSDKQRLIDEGEISFWAEYSEAEYINSTFVGDEEIIWEVDTETSYLEHVRSLTSNEITSTRTDLILTMQIGWLGDRWELVSLGYSKK | not soluble
15 | DRSVIYPSEYFFLKGGNAFWRFGDSMEAAFQTLPPYTATADKHLILQTSYRASRLLVNFLPFVFLKTNDEALHFKARWDMVSRKPYLEMGYSES | not soluble
16 | MGSDKIHHHHHHMLELGQTPNAAPDAAPADLIKDTTDATFMADVVDASQTTPVIVDFWAPWCGPCKTLGPQLEAAVTAAKGKVRMVKVNVDENQQIAAQLRVQSIPMVYAFVDGQPIDGFQGAVPESQIKDFVTKLAAMSKEDGGLAEALEAAEEMLSMGEHDDAAQTFAAILGEEPENAAAMGGLARAHLAMGQVDEAEQLLSTAPDAIFNAPELEAVRAQIELARQAESAGPLAELQAAVDANPDDHAARFELAQALHANGDVEQAVDQLLELFRRDREWEDAKAKTQLFTIFDALPPQDPIALTGRRRLSSMIFA | not soluble
17 | MKHILIIGATGQIGSELTMELRRRYGNTNVVAGYIQGAEPKGELKESGPSAVVDVTNGEMIESVVKEYHIDTIYNLAALLSVVAESKPKLAWKIGIDGLWNVLEVAREQGCAVFTPSSIGSFGASTPHTQTPQDTIQRPRTMYGVTKVTTELLSDYYFNKYGVDTRAVRFPGIISNVTPPGGGTTDYAVDIYYSAVRGEKFVCPIKEGTLMDMMYMPDALNAAIMLMEADPTKLIHRNAFNIASMSFDPETIFHAIKKHVPAFEMIYDVDPLKQRIADSWPDSLDDTCAREEWGWKPAYDLESMTVDMLEKLREKLKK | not soluble
18 | MDSGLKALEAVLAIARKGSFRAAALDLGVSTTALSHTVARLEAGLGVRLFHRTTRSVALTEAGREFVARIAPALTEIRAALETVRSQRATPSGMLRINASVQAGRAVAPLVLAFLRRYPEMRVDLVTEGRLLDIVAEGFDMGIRPADLVPRDMIALPLGLPVRHAVVASPDWLVRHPEPRSPADLDPDACLRVRLPNGALLRWPFQKDGVPLPFEASGRLTVDEAAIARAAVLDGAGIGYFIEADVAEDIAAGRMIRLLEDWTPNRPGFSLYYSGRRNPSAGFTAFLAMAREREAA | not soluble
19 | MGSDKIHHHHHHSSCGNDESDPDSTVTIAMATVEKQPQYDAPYLVLDNGEKLWVVQHIVPYRDLKAGERIFGNYSFLEAGESGFAYNIRLNDYTLVPVQKIIGLNPDNMDSIGNMKVQIKDMWPSDDYLNVRFMLNFPSPQKPILNLVVNEMIPWTKDGYAHLELRYNNNGSQGRLVPGMVSFKLDDYSPENSELKGIKVLVNPVDGEEKTYIFSYPLTGEDVPGFNPLDLAELK | not soluble
